Measurements taken from patent USRE47972.

Molecular target: trypsin
Test: cell-based or functional assay

Highly purified human IαIp (mixture of inter-alpha inhibitor IαI and pre-alpha inhibitor PαI) purified from cryo-poor plasma (from UniProt P02760 206-352; P19827 35-672; P19823 55-702; Q06033 35-651)
Specific Inh. Activity [TIU/mg IαIp]: 1410 TIU/mg IαIp

Human IαIp (mixture of inter-alpha inhibitor IαI and pre-alpha inhibitor PαI) purified from cryoprecipitate, a side-fraction of fVIII production (from UniProt P02760 206-352; P19827 35-672; P19823 55-702; Q06033 35-651)
Specific Inh. Activity [TIU/mg IαIp]: 1410 TIU/mg IαIp
